Laboratory results published in US20210322524A1 (CASE WESTERN RESERVE UNIVERSITY, published 2021).
Where no end group is shown, it is not given here.

Columns and labels:
[1] = target: T1, ATAD3A-Flag protein (human ATAD3A wildtype, Flag-tagged) (human, UniProt Q9NVI7 1-586); test: biotin-DA1 (10 µM) with purified protein, streptavidin beads, western blot
T1 construct: Made cell-free (TNT system) from pcDNA3.1(+)-ATAD3A-Flag for the in vitro assays, or expressed in HEK293 cells; the same construct is used for both here; also called ATAD3A WT; flag-tagged ATAD3A; not shown: Flag tag
T1 sequence (looked up): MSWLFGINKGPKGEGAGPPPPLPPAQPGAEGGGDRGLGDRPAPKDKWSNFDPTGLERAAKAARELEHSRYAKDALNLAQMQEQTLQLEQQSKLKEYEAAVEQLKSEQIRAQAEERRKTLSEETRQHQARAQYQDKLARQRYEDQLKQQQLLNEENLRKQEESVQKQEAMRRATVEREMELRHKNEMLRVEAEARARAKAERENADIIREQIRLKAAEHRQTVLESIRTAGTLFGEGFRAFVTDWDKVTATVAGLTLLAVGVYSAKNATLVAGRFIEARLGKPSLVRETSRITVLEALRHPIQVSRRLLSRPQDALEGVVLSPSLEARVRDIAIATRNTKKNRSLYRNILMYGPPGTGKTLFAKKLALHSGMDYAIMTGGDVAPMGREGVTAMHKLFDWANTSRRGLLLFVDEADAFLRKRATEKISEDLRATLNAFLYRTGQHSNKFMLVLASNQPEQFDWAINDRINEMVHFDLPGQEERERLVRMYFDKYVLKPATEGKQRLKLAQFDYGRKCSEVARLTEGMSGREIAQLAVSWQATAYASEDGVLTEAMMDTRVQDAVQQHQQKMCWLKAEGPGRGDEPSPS

[2] = target: ClpP (mitochondrial matrix protein, endogenous in HD striatal cells) (mouse, UniProt O88696 53-272); test: biotin-DA1 with total lysates of HD striatal cells, streptavidin beads, western blot
ClpP (mitochondrial matrix protein, endogenous in HD striatal cells), sequence (O88696 53-272 limits assumed): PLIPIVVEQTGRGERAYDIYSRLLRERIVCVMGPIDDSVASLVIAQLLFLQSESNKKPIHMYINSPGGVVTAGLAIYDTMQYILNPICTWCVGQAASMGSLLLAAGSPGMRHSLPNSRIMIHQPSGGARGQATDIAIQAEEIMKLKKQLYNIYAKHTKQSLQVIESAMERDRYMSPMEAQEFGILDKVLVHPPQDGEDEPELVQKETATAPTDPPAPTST

[3] = target: T2, Drp1 (endogenous, mouse striatal cells and mouse striatum) (mouse, UniProt Q8K1M6 1-736, limits assumed); test: as above
T2 construct: Endogenous protein in lysates; also called Dynamin-related protein 1
T2 sequence (Q8K1M6 whole entry): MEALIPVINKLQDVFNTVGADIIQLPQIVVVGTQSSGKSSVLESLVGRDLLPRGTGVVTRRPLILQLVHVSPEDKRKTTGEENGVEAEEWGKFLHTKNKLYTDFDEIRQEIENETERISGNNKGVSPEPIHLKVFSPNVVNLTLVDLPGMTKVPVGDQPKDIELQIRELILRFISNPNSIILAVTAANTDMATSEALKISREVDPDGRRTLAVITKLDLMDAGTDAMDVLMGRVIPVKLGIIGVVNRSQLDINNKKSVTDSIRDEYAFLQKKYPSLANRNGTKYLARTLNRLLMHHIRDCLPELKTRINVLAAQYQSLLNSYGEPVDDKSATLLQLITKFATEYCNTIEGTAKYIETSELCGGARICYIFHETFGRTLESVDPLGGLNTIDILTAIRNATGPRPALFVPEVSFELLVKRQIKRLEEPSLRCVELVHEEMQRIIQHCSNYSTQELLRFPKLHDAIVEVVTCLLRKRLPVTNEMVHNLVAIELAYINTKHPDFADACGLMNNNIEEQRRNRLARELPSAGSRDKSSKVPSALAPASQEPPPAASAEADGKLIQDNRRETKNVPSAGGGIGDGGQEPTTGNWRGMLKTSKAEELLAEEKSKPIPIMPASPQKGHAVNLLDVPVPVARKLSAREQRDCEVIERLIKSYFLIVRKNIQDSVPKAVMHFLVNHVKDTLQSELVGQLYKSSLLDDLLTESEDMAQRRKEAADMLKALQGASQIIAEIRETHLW

[4] = target: T3, VDAC (OMM protein, endogenous in HD striatal cells) (mouse, UniProt Q3U6K8 2-283); test: as above
T3 construct: also called voltage-dependent anion channel

[5] = target: T4, GST-Drp1 recombinant protein (UniProt O00429-3 1-710, limits assumed); test: biotin-DA1 with purified protein, streptavidin beads, western blot
T4 construct: Bought (Abnova); also called Dynamin-related protein 1; not shown: GST tag
T4 sequence (O00429 other isoform, or with tags, fused parts or gaps limits assumed): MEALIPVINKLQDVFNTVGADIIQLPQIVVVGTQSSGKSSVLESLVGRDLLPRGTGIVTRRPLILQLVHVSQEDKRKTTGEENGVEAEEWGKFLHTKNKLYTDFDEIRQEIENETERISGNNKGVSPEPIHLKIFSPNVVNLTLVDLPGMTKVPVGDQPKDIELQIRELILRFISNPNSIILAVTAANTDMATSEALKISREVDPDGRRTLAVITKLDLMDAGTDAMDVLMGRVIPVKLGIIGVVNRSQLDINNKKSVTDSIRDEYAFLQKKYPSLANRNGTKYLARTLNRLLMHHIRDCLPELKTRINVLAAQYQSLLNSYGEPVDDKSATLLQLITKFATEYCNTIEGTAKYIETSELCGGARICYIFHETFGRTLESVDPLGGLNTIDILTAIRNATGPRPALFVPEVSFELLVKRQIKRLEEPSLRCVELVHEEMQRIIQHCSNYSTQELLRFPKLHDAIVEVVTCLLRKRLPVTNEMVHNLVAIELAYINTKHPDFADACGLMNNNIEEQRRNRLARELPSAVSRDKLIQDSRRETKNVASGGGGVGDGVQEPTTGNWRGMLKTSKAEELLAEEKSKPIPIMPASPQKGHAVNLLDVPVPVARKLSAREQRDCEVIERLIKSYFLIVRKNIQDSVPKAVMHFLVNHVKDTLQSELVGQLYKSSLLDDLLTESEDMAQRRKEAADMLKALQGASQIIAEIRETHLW

[6] = target: T5, ATAD3A (endogenous, mouse cells and mouse striatum) (mouse, UniProt Q925I1 2-591); test: biotin-DA1 (10 µM) with total lysates of HD striatal cells, streptavidin beads, western blot
T5 construct: Endogenous protein in lysates; also called endogenous ATAD3A
T5 sequence (looked up): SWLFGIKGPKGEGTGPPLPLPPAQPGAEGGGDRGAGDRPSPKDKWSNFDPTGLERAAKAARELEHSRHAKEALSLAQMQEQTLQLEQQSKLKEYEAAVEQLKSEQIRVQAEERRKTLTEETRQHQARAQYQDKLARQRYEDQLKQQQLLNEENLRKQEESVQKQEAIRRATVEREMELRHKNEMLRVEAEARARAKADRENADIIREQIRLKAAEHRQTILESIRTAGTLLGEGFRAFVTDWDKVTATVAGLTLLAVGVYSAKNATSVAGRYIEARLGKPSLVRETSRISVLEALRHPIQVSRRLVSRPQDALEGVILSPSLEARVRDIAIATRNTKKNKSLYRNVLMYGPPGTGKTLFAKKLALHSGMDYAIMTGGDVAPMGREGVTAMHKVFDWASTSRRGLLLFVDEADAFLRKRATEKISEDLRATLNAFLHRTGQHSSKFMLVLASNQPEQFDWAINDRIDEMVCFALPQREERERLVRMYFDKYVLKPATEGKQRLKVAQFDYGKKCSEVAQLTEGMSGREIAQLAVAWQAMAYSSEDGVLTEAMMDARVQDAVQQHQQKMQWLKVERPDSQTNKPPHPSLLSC

YGRKKRRQRRRGGEDKRKT (also: biotin, position not given here, also called biotin-DA1) [Biotin-conjugated DA1]
binding result [1]: binds | binding result [2]: no binding (tested: 10 µM) | binding result [3]: no binding (tested: 10 µM) | binding result [4]: no binding (tested: 10 µM) | binding result [5]: no binding (tested: 10 µM) | binding result [6]: binds
